Consider 17 molecules from US20060088522A1, “Humanized anti-5T4 antibodies and anti-5T4/calicheamicin conjugates” (Wyeth, priority 2004, published 2006).

Substitutions are numbered along the chain they refer to.

For one assay, the system named is PC14PE6 lung tumors. Put plainly: orthotopic model of human lung cancer. In kind it is in vivo, nude mice. Particulars: intraperitoneal, 3 doses on days 6, 10 and 14. The protocol:
To further assess the targeting ability of antibodies having an H8-calicheamicin conjugates, an orthotopic model for non-small cell and small cell cancer was used, essentially as described by Onn et al. (2003) Clin. Cancer Res. 9(15):5532-5539. In brief, human lung adenocarcinoma (PC14PE6) cells were injected into tail veins of nude mice, which then migrated to form tumors in lung. Tumors appeared as solid nodules in the lung parenchyma and caused hemorrhagic pleural effusions containing suspended tumor cells. Injection of control compounds and H8-calicheacmicin conjugates were administered by intraperitoneal injection to tumor-bearing mice beginning at 6 days after injection of tumor cells for a total of 3 doses given at 4-day intervals, i.e., on days 6, 10, and 14.

Assay [1] addresses T1, human 5T4 antigen on cells (human, UniProt Q13641 32-420).
T1 construct: whole, on cells; also called 5T4 on MDAMB435/5T4 cells; 5T4 on CT26/5T4 cells
T1 sequence (looked up): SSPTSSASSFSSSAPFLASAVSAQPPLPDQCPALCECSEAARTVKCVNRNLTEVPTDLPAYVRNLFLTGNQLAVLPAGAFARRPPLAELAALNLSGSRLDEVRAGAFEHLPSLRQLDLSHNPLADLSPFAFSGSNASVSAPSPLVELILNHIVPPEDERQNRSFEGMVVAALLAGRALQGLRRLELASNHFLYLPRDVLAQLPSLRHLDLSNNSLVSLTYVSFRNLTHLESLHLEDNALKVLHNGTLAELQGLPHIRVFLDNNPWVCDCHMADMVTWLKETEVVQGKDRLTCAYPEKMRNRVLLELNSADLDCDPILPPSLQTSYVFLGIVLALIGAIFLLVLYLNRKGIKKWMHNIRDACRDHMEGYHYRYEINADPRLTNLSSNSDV
Put plainly: cell-based or functional assay.

The target in assay [2] is T2, human 5T4 antigen (human, UniProt Q13641 32-355, limits assumed).
T2 construct: Isolated antigen as used in BIACORE and ELISA; also called 5T4 oncofetal antigen
T2 sequence (looked up): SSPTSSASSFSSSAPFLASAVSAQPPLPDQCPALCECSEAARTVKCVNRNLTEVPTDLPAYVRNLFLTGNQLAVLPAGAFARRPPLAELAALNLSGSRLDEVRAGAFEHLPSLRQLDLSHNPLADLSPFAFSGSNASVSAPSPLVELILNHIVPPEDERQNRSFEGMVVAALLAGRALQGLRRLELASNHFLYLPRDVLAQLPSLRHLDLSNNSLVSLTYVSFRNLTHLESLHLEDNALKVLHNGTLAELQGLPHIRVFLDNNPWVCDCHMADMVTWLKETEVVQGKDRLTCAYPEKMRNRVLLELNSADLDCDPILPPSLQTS
The experiment in a line: BIACORE. On the technique in general: SPR reads the build-up and loss of mass on a sensor chip optically.

In assay [3] the target is T1, human 5T4 antigen on cells. Put plainly: flow cytometry on N87, PC14PE6 and NCl-H157 cells (told of each). In general terms: Flow cytometry measures light scatter and fluorescence of single cells or particles in a stream.
In assay [4] the target is T1, human 5T4 antigen on cells. The experiment in a line: flow cytometry on MDAMB435/5T4 cells.
In assay [5] the target is T2, human 5T4 antigen. Put plainly: BIACORE, human 5T4 antigen immobilized on a CM5 chip, antibody 12.5 nM to 200 nM. As to the method: BIACORE® technology utilizes changes in the refractive index at the surface layer upon binding of the antibody to the 5T4 antigen immobilized on the layer. Binding is detected by surface plasmon resonance (SPR) of laser light refracting from the surface. Analysis of the signal kinetics on rate and off rate allows the discrimination between non-specific and specific interaction. The concentration of antibody used was in the range of 12.5 nM to 200 nM.

Assay [6] deals with T2, human 5T4 antigen. The experiment in a line: competition ELISA on plate-coated human 5T4 antigen; competitor biotinylated chimeric H8 at its ED50. Background: ELISA stands for enzyme-linked immunosorbent assay.
Description: ELISA plates were coated with human 5T4 antigen. To each well was added 100 μl of 1 μg/ml 5T4 antigen in PBS-CMF pH 7.2. The plates were incubated overnight at 4° C. After coating with antigen, plates were washed in a blocking solution of 0.02% casein in PBS-CMF, pH 7.2 for 2-4 hours at room temperature. […] Plates were washed 4 times with 200 μl of 0.03% TWEEN®-20 in PBS. The signal was developed for 10-15 minutes at room temperature following addition of 100 ∥l BIOFX® TMB (Biofx Laboratories, Inc. of Randallstown, Md.) per well. The reaction was stopped by addition of 100 μl per well of 0.18 N H₂SO₄. All incubation and wash steps were performed with gentle agitation. […] The ED50 of biotinylated antibody binding to antigen was determined by plotting OD₄₅₀ (duplicate data points averaged) as a function of biotinylated antibody concentration. […] The biotin label was amplified using streptavidin-HRP diluted 1:10,000 in assay buffer, followed by signal development and quantification as above.
The target in assay [7] is T2, human 5T4 antigen. Put plainly: BIACORE (plasmon resonance).
Assay [8] concerns the target T1, human 5T4 antigen on cells. The experiment in a line: FACS on MDAMB435/5T4 cells.

On to “CMA: anti-CD33 antibody (p67.6) conjugated to calicheamicin, AcBut linker; control conjugate”, for which, in the assay with PC14PE6 lung tumors, the pleural effusions result is “did not reduce the pleural effusions” and the “survival of tumor-bearing animals” value is listed as “slightly increased the average survival”.

B1: H8-AcBut-CalichDMH (antibody, V domains shown)
VH: EVQLQQSGPDLVKPGASVKISCKASGYSFTGYYMHWVKQSHGKSLEWIGRINPNNGVTLYNQKFKDKAILTVDKSSTTAYMELRSLTSEDSAVYYCARSTMITNYVMDYWGQVTSVTVSS
VL: SIVMTQTPTFLLVSAGDRVTITCKASQSVSNDVAWYQQKPGQSPTLLISYTSSRYAGVPDRFIGSGYGTDFTFTISTLQAEDLAVYFCQQDYNSPPTFGGGTKLEIK
Regarding B1, the ED50 (ng/ml calicheamicin), MTS vital dye, MDAMB435/5T4 cells in assay [1] was found to be 0.04 ng/mL.

B2: H8-AcPac-CalichDMH (antibody, V domains shown)
VH: B1 VH
VL: B1 VL
Turning to B2, the ED50 (ng/ml calicheamicin), MTS vital dye, MDAMB435/5T4 cells in [1] worked out at 0.02 ng/mL.

B3: H8 antibody/PEG-bis-maleimide (PEGmal2) (antibody, V domains shown)
VH: B1 VH
VL: B1 VL
notes: also called H8PEGmal2; H8PEG(mal2)
In the case of B3, the “fraction of binding to 5T4 lost following antibody modification” value (“fraction of binding” for short) in the assay with human 5T4 antigen [2] was found to be 43%.

B4: H8-Amide-CalichDMH (antibody, V domains shown)
VH: B1 VH
VL: B1 VL
On to B4, for which, in assay [1], the ED50 (ng/ml calicheamicin), MTS vital dye, MDAMB435/5T4 cells turned out to be 0.18 ng/mL and the fold cytotoxicity, 5T4-expressing against 5T4-negative cells amounted to 200 fold.

B5: murine H8 anti-5T4 antibody (antibody, V domains shown)
VH: B1 VH
VL: B1 VL
notes: also called mAb5T4; H8 antibody
The term Kd denotes a measure of binding affinity in units of concentration. Broadly, the koff is a measure of how fast the partners let go of each other. Lower therefore signals slow dissociation. The kon is the second-order rate constant of association. Higher therefore signals faster complex formation. Consider B5, for which, in assay [3], the “fold signal over control IgG” value was approximately 10 fold. The “fold signal over control IgG” value in assay [4] was more than 100 fold. Further, in the assay with human 5T4 antigen [5], the equilibrium dissociation constant (Kd) was 0.58 nM, the koff amounted to 5.9e-05 s⁻¹ and the kon worked out at 100000 M⁻¹ s⁻¹.

B6: Chimeric H8 (mVH/mVL) (antibody, V domains shown)
VH: B1 VH
VL: B1 VL
notes: also called chimeric H8 antibody; chimeric versions of H8
A word on the IC50: it is the concentration that inhibits the measured activity by half. Higher therefore signals weaker potency. In the assay with human 5T4 antigen [6], B6 showed an IC50 of 1 nM. For the same molecule, in the assay with human 5T4 antigen [5], the Kd is 0.3 nM, the koff was found to be 4.2e-05 s⁻¹ and the association rate constant (kon) was determined as 140000 M⁻¹ s⁻¹.

B7: Murine H8/CM (antibody, V domains shown)
VH: B1 VH
VL: B1 VL
notes: also called murine H8-calicheamicin conjugates
Regarding B7, in the assay with human 5T4 antigen [7], the Kd was 0.58 nM, the koff is 5.9e-05 s⁻¹ and the kon was found to be 100000 M⁻¹ s⁻¹.

B8: Semi-Humanized H8 (mVH/hVL1) (antibody, human IgG4 S228P, kappa, V domains shown)
VH: B1 VH
VL: DIVMTQSPDSLAVSLGERATINCKASQSVSNDVAWYQQKPGQSPKLLISYTSSRYAGVPDRFSGSGSGTDFTLTISSLQAEDVAVYFCQQDYNSPPTFGGGTKLEIKR
notes: murine H8 VH + mutated human IgG4; also called semi-humanized H8 antibody; semi-human anti-5T4 antibody
For B8, the binding result in [8] is given as “binds”.

B9: H8 antibody/PEG-SPA (PEG2K) (antibody, V domains shown)
VH: B1 VH
VL: B1 VL
notes: also called H8PEG2K; H8PEG
Consider B9, for which the “fraction of binding” value with human 5T4 antigen [2] was found to be 69%.

B10: H8PEGmal2-AcBut-CalichDMH (antibody, V domains shown)
VH: B1 VH
VL: B1 VL
Take B10: in [1], the ED50 (ng/ml calicheamicin), MTS vital dye, MDAMB435/5T4 cells is 0.9 ng/mL.

B11: H8 antibody/PEG-SBA (PEG5K) (antibody, V domains shown)
VH: B1 VH
VL: B1 VL
notes: also called H8PEG5K; H8PEG
On to B11, for which the “fraction of binding” value with human 5T4 antigen [2] was 79%.

B12: Humanized H8 version 2 (hVH2/hVL2) (antibody, human IgG4 S228P, kappa, V domains shown)
VH: QVQLVQSGAEVKKPGASVKVSCKASGYSFTGYYMHWVRQAPGQGLEWMGRINPNNGVTLYNQKFKDRVTMTRDTSISTAYMELSRLRSDDTAVYYCARSTMITNYVMDYWGQGTLVTVSS
VL: B8 VL with S43P, S49Y, F87Y
Turning to B12, the Kd with human 5T4 antigen [5] amounted to 0.12 nM.

B13: Humanized H8 version 2/CM (antibody, human IgG4 S228P, kappa, V domains shown)
VH: B12 VH
VL: B8 VL with S43P, S49Y, F87Y
modifications: calicheamicin (CM) conjugated; linker and residues not stated
notes: also called humanized H8 version 2-calicheamicin conjugates
As for B13, in the assay with human 5T4 antigen [7], the Kd came out at 0.17 nM, the koff worked out at 2e-05 s⁻¹ and the kon stood at 120000 M⁻¹ s⁻¹.

B14: Humanized H8 version 2/AcBut/CalichDMH (antibody, human IgG4 S228P, kappa, V domains shown)
VH: B12 VH
VL: B8 VL with S43P, S49Y, F87Y
modifications: CalichDMH conjugated through the AcBut linker; residues not stated
notes: Conjugate sample contained 61 ug CalichDMH per mg protein, 1% free antibody, 1.4% aggregate; also called humanized H8 calicheamicin conjugate
In the case of B14, in the assay with human 5T4 antigen [7], the affinity, expressed as Kd, was 0.26 nM; the koff stood at 3.4e-05 s⁻¹; the kon came to 130000 M⁻¹ s⁻¹.

B15: Humanized H8 version 1 (hVH1/hVL1) (antibody, human IgG4 S228P, kappa, V domains shown)
VH: B12 VH with R38K, A40S, M48I
VL: B8 VL
In the assay with human 5T4 antigen [5], B15 yielded a Kd of 0.84 nM.

B16: Humanized H8 version 3 (hVH3/hVL2) (antibody, human IgG4 S228P, kappa, V domains shown)
VH: B12 VH with M70I, I76T, R85S, D89E
VL: B8 VL with S43P, S49Y, F87Y
Take B16: binding in the assay with human 5T4 antigen [5] was characterised by a dissociation constant (Kd) of 0.12 nM.
